Substitutions are numbered along the chain they refer to. Where two headings read alike, the source gives them in different places.
B1: BMK-TCB (antibody, V domains shown)
VH: not shown
VL: QAVVTQEPSLTVSPGGTVTLTCGSSTGAVTTSNYANWVQEKPGQAFRGLIGGTNKRAPGTPARFSGSLLGGKAALTLSGAQPEDEAEYYCALWYSNLWVFGGGTKLTVL
notes: benchmark anti-CD3 antibody; also called anti-CD3 antibody developed by Roche
B2: ch126A11A4 (antibody, V domains shown)
VH: QVQLQQPGTELVKPGASVKLSCKASGYTFTSYWMHWVKQRPEQGLEWIGNINPSNGDTNYNEKFKSKATLTVDKASNTAYMQLSSLTSEDSAVYYCGRDRSSQYYFDYWGQGTTLTVSS
VL: DIVMSQSPSSLAVSAGEKVTMSCKSSQSLLNSRTRKNYLAWYQQKPGQSPKLLIYWASTRESGVPDRFTGSGSGTDFTLTISSVQAEDLAVYFCKQSFILRTFGGGTKLEIK
B3: ch127E2D3 (antibody, V domains shown)
VH: QVQLQQPGTELVKPGASVKLSCKASGYTFTSYWMHWVKQRPGEGLEWIGNIYPGSSSINYNEKFKSKATLTVDKSSSTAYMQLSSLTSEDSAVYYCARDRSSQYYFDYWGQGTTLTVSS
VL: B2 VL with F93Y, K95T, F98Y, I99N
B4: ch133B4C7 (antibody, V domains shown)
VH: B2 VH with E42G, Y60F, A75S, N77S, G97A
VL: B2 VL with K24N, F93Y, F98Y, I99T
B5: ch140D2B10 (antibody, V domains shown)
VH: B2 VH with E42G, D57E, T58S, A75S, N77S, S91Y, G97A
VL: B2 VL with F93Y, F98Y, I99T
B6: ch147C6F3 (antibody, V domains shown)
VH: B2 VH with T30D, E42G, I51L, D57E, T58I, S66H, A75S, N77S, G97S
VL: B2 VL with M21L, P46S, I54M, S82T, S83N, F93Y, F98Y
B7: ch147E11E2 (antibody, V domains shown)
VH: B2 VH with A16T, E42G, D57A, A75S, N77S, G97A
VL: B2 VL with T34S, F93Y, K95T, F98Y, I99T
B8: hu147E2-L1H4 (antibody, V domains shown)
VH: EVQLVQSGAEVKKPGSSVKVSCKASGYTFTSYWMHWVRQAPGQGLEWIGNINPSNGATNYNEKFKSRATLTVDKSTSTAYMELSSLRSEDTAVYYCARDRSSQYYFDYWGQGTTVTVSS
VL: DIVMTQSPDSLAVSLGERATINCKSSQSLLNSRSRKNYLAWYQQKPGQPPKLLIYWASTRESGVPDRFSGSGSGTDFTLTISSLQAEDVAVYYCTQSYTLRTFGGGTKVEIK
notes: humanized 147E11E2; also called hu14E2-L1H4
B9: hu147E2-L2H2 (antibody, V domains shown)
VH: B8 VH with I48M, A68V, L70I, V72A
VL: B8 VL with P49S
notes: humanized 147E11E2; also called hu14E2-L2H2
B10: hu147E2-L2H3 (antibody, V domains shown)
VH: B8 VH with I48M, A68V
VL: B8 VL with P49S
notes: humanized 147E11E2; also called hu14E2-L2H3
B11: hu147E2-L2H4 (antibody, V domains shown)
VH: B8 VH
VL: B8 VL with P49S
notes: humanized 147E11E2; also called hu14E2-L2H4
B12: hu147E2-L3H3 (antibody, V domains shown)
VH: B8 VH with I48M, A68V
VL: DIQMTQSPSSLSASVGDRVTITCKSSQSLLNSRSRKNYLAWYQQKPGKAPKLLIYWASTRESGVPSRFSGSGSGTDFTLTISSLQPEDFATYYCTQSYTLRTFGGGTKVEIK
notes: humanized 147E11E2; also called hu14E2-L3H3
B13: hu147E2-L3H2 (antibody, V domains shown)
VH: B8 VH with I48M, A68V, L70I, V72A
VL: B12 VL
notes: humanized 147E11E2; also called hu14E2-L3H2
B14: hu147E2-L3H4 (antibody, V domains shown)
VH: B8 VH
VL: B12 VL
notes: humanized 147E11E2; also called hu14E2-L3H4
B15: ch124E3D6 (antibody, V domains shown)
VH: B2 VH with E42G, A75S, N77S, G97A
VL: B2 VL with F93Y, F98Y, I99N
B16: BMK-B219 (antibody, V domains shown)
VH: EVQLVESGGGLVQPGGSLRLSCAASGFTFNTYAMNWVRQAPGKGLEWVARIRSKYNNYATYYAASVKGRFTISRDDSKNSLYLQMNSLKTEDTAVYYCARHGNFGNSYVSWFAYWGQGTLVTVSS
VL: B1 VL with A2T, G23R, E40Q, F46P, A80V
notes: benchmark anti-CD3 antibody; also called anti-CD3 antibody developed by JNJ (Johnson & Johnson)
B17: 8-B12-F9-B11 (antibody, V domains shown)
VH: EVQLVESGGGIVKPGGSRKLSCAASGFTFSDYGMHWVRQAPEKGLEWIAYISSASGKIYYADTVKGRFTISRDNAKNILFLQMTSLRSEDTAMYYCARVLRWSVNYVMDYWGQGTSVTVSS
VL: DIVMTQSPSSLAVSAGEKVTMNCESSQSVLYSSNQKNYLAWYQQKPGQSPKLLIYWASTRESGVPDRFTGTGSGTDFTLTISSVQAEDLAVYYCHQYLSSWTFGGGTKLEIK
notes: mouse monoclonal (hybridoma) antibody
B18: 4-F12-F1-A4 (antibody, V domains shown)
VH: EVKLVESGGGLVKPGGSLKLSCAASGFTFSSYTMSWIRQTPAKRLEWVATISSGGGNTFYADSVKGRFTISRDNARNTLNLQMSSLRSEDTAMYYCARSLYYYDGTYVRKDYYAMDYWGQGSSVTVSS
VL: DIQMTQSPASLSVSVGETVTISCRASENIFSNLAWYQQKQGKSPQLLVYAATNLAEGVPSRFSGSRSGTQFSLKINSLQSEDFGSYYCQQFWGTPWTFGGGTKLEVK
notes: as for B17

Columns and labels:
[1] = target: T1, human CD3 (human, UniProt P07766 23-207; P04234 22-171; P09693 23-182); assay: cell-based or functional assay
T1 sequence (P07766 23-207, chain 1 of 3): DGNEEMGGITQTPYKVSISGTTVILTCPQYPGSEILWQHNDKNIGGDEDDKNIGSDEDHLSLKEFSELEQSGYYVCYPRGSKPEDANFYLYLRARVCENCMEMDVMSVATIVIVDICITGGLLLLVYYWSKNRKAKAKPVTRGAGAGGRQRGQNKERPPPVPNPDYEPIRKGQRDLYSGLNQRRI
T1 sequence (P04234 22-171, chain 2 of 3): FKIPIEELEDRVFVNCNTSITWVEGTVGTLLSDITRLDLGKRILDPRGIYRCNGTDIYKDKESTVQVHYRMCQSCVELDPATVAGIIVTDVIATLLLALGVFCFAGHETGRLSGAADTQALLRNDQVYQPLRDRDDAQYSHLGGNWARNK
T1 sequence (P09693 23-182, chain 3 of 3): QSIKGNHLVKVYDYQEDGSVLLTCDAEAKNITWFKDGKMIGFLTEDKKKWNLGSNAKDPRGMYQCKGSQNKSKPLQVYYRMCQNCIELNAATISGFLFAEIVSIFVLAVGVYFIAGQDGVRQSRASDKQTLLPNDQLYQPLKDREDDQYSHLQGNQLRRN

[2] = target: T1, human CD3; assay: FACS on Jurkat cells
[3] = target: T1, human CD3; assay: FACS on Jurkat cells; remark: listed apart in the source
[4] = target: T1, human CD3; assay: cell-based or functional assay; remark: listed apart in the source
[5] = target: T1, human CD3; assay: FACS on Jurkat cells; remark: listed apart in the source
[6] = target: T1, human CD3; assay: FACS on Jurkat cells; remark: listed apart in the source
[7] = target: T1, human CD3; assay: cell-based or functional assay; remark: listed apart in the source
[8] = target: T2, cynomolgus CD3 (cynomolgus (Macaca fascicularis), UniProt Q95LI5 22-198; Q95LI8 22-171; Q95LI7 23-181); assay: FACS on 293T-cynoCD3mix cells
T2 construct: whole, on cells; composition of the 'mix' not defined; also called cynoCD3
T2 sequence (Q95LI5 22-198, chain 1 of 3): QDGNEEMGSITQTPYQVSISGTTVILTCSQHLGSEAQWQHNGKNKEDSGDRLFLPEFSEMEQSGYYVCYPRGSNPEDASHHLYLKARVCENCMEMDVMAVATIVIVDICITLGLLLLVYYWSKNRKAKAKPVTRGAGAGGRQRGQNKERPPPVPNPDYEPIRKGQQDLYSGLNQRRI
T2 sequence (Q95LI8 22-171, chain 2 of 3): as the sequence (P04234 22-171, chain 2 of 3) above, with I5V, N15K, I20V, S32T, D33N, I34N, T64A, S74N, V83L, H141R counted along it
T2 sequence (Q95LI7 23-181, chain 3 of 3): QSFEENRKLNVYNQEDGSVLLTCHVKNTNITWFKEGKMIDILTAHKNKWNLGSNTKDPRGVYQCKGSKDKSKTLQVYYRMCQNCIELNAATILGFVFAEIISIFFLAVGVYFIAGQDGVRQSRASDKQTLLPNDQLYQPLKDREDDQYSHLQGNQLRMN

[9] = target: T2, cynomolgus CD3; assay: FACS on 293T-cynoCD3mix cells; remark: listed apart in the source
[10] = target: T1, human CD3; assay: FACS on HEK293T-hCD3mix cells; also: test concentration or dose not given here

Row | Binder | EC50 (Jurkat-NFAT-luciferase activation) [1] [nM] | Top signal (Jurkat-NFAT-luciferase activation) [1] | EC50 [8] [nM] | Top signal [8] | EC50_Fold change (Jurkat-NFAT-luciferase activation, normalized to ch147E11E2) [4] [fold] | Top FACS signal_Fold change (Jurkat-NFAT-luciferase activation, normalized to ch147E11E2) [4] [fold] | EC50 [9] [nM] | Top signal [9] | also measured
1 | B1 | 59.4 | 753 | – | – | – | – | – | – | EC50 [2]: 1.91 nM; Top signal [2]: 3140; EC50 [3]: 1.3 nM; Top FACS signal [3]: 2570; EC50_Fold change (Jurkat-NFAT-luciferase activation, normalized to ch147E11E2; mean) [4]: 2.24 fold; Top FACS signal_Fold change (Jurkat-NFAT-luciferase activation, normalized to ch147E11E2; mean) [4]: 0.5 fold; EC50 [5]: 1.35 nM; Top FACS signal [5]: 2370; EC50 [6]: 1.6 nM; Top FACS signal [6]: 1740; EC50_Fold change (Jurkat-NFAT-luciferase activation, normalized to ch40-C12-C10-E9; mean) [7]: 8.17 fold; Top FACS signal_Fold change (Jurkat-NFAT-luciferase activation, normalized to ch40-C12-C10-E9; mean) [7]: 0.48 fold
2 | B2 | 33.6 | 682 | 2.91 | 57000 | – | – | – | – | EC50 [2]: 0.567 nM; Top signal [2]: 1760
3 | B3 | 61.7 | 337 | 2.33 | 46900 | – | – | – | – | –
4 | B4 | 28 | 290 | 2.81 | 45200 | – | – | – | – | –
5 | B5 | – | – | 2.81 | 52900 | – | – | – | – | –
6 | B6 | 57.4 | 428 | 4.15 | 55200 | – | – | – | – | EC50 [2]: 1.77 nM; Top signal [2]: 2280
7 | B7 | 33 | 421 | 2.19 | 53900 | 1 | 1 | 1.23 | 17800 | EC50 [2]: 0.419 nM; Top signal [2]: 2780; EC50 [5]: 0.649 nM; Top FACS signal [5]: 2780
8 | B8 | – | – | – | – | 1.21 | 0.92 | 1.31 | 18700 | –
9 | B9 | – | – | – | – | 1.4 | 0.9 | 1.64 | 20500 | –
10 | B10 | – | – | – | – | 1.65 | 0.78 | 1.86 | 21000 | –
11 | B11 | – | – | – | – | 1.24 | 0.99 | 2.02 | 21200 | –
12 | B12 | – | – | – | – | 1.36 | 0.68 | 1.63 | 19000 | EC50 [5]: 0.659 nM; Top FACS signal [5]: 2680
13 | B13 | – | – | – | – | 1.66 | 0.76 | 1.77 | 19200 | EC50 [5]: 0.891 nM; Top FACS signal [5]: 2730
14 | B14 | – | – | – | – | 2.12 | 0.6 | 1.29 | 16100 | EC50 [5]: 0.671 nM; Top FACS signal [5]: 2680
15 | B15 | 32.4 | 482 | 2.64 | 45800 | – | – | – | – | –
16 | B16 | 68.4 | 811 | 4.34 | 60000 | – | – | – | – | EC50 [2]: 1.47 nM; Top signal [2]: 3000
17 | B17 | – | – | – | – | – | – | – | – | FACS MFI [10]: 67100 MFI
18 | B18 | – | – | – | – | – | – | – | – | FACS MFI [10]: 16800 MFI

— patent US20250223358A1 (ANTENGENE BIOLOGICS, published 2025)
